Measured values published in patent publication US20130281360A1.
Read-outs that look alike come from different tables or passages of the source.

Legend:
[1] = molecular target: P84S variant of the truncated E. coli SPase (Δ2-75) (Escherichia coli K-12 MG1655) (UniProt P00803); experiment: steady state binding by the increase of arylomycin fluorescence (ex 320 nm, em 410 nm) with soluble N-terminally truncated E. coli SPase
[2] = molecular target: truncated wild type E. coli SPase that lacks the N-terminal membrane helices (Δ2-75) (Escherichia coli K-12 MG1655) (UniProt P00803); experiment: as above
[3] = molecular target: full-length His-tagged S. aureus SPase (SpsB), P29S mutant (Staphylococcus aureus NCTC 8325); experiment: equilibrium binding by the increase of arylomycin fluorescence (ex 320 nm, em 410 nm) with full-length His-tagged S. aureus SPase
[4] = molecular target: full-length His-tagged S. aureus SPase (SpsB), wild type (Staphylococcus aureus NCTC 8325); experiment: as above
[5] = molecular target: detergent-solubilized full-length His-tagged E. coli SPase, wild type (Escherichia coli) (UniProt P00803); experiment: steady-state binding by increase of arylomycin fluorescence, detergent-solubilized full-length SPase
[6] = molecular target: detergent-solubilized full-length His-tagged E. coli SPase, P84S variant (Escherichia coli) (UniProt P00803); experiment: as above
[7] = molecular target: E. coli MG1655 SPase (LepB) with His at residue 84, in the strain (Escherichia coli K-12 MG1655) (UniProt P00803); experiment: cell-based or functional assay
[8] = molecular target: E. coli MG1655 SPase (LepB) with Phe at residue 84, in the strain (Escherichia coli K-12 MG1655) (UniProt P00803); experiment: cell-based or functional assay
[9] = molecular target: P84S variant of the truncated E. coli SPase (Δ2-75) (Escherichia coli K-12 MG1655) (UniProt P00803); experiment: steady-state binding by increase of arylomycin fluorescence (ex 320 nm, em 410 nm), SPase in n-octyl-β-glucopyranoside micelles
[10] = molecular target: truncated wild type E. coli SPase that lacks the N-terminal membrane helices (Δ2-75) (Escherichia coli K-12 MG1655) (UniProt P00803); experiment: as above
[11] = molecular target: E. coli MG1655 SPase (LepB) with Lys at residue 84, in the strain (Escherichia coli K-12 MG1655) (UniProt P00803); experiment: cell-based or functional assay
[12] = molecular target: E. coli MG1655 SPase (LepB) with Cys at residue 84, in the strain (Escherichia coli K-12 MG1655) (UniProt P00803); experiment: cell-based or functional assay
[13] = molecular target: E. coli MG1655 SPase (LepB) with Met at residue 84, in the strain (Escherichia coli K-12 MG1655) (UniProt P00803); experiment: cell-based or functional assay
[14] = molecular target: E. coli MG1655 SPase (LepB) with Leu at residue 84, in the strain (Escherichia coli K-12 MG1655) (UniProt P00803); experiment: cell-based or functional assay
[15] = molecular target: E. coli MG1655 SPase (LepB), wild type, in the strain (Escherichia coli K-12 MG1655) (UniProt P00803); experiment: cell-based or functional assay
[16] = molecular target: P. aeruginosa PAO1 SPase (LepB), wild type, in the strain (Pseudomonas aeruginosa PAO1) (UniProt Q9I5G7); experiment: cell-based or functional assay
[17] = molecular target: E. coli MG1655 SPase (LepB) with Glu at residue 84, in the strain (Escherichia coli K-12 MG1655) (UniProt P00803); experiment: cell-based or functional assay
[18] = molecular target: E. coli MG1655 SPase (LepB) with Asp at residue 84, in the strain (Escherichia coli K-12 MG1655) (UniProt P00803); experiment: cell-based or functional assay
[19] = molecular target: E. coli SPase (LepB) P84S, in strain PAS0232 (Escherichia coli K-12 MG1655) (UniProt P00803); experiment: cell-based or functional assay
[20] = molecular target: S. epidermidis SpsIB S29P, in strain PAS9001 (Staphylococcus epidermidis RP62A); experiment: cell-based or functional assay
[21] = molecular target: P. aeruginosa SPase (LepB) P84S, in strain PAS2006 (Pseudomonas aeruginosa PAO1) (UniProt Q9I5G7); experiment: cell-based or functional assay
[22] = molecular target: S. aureus SPase (SpsB) P29S, in strain PAS8001 (Staphylococcus aureus NCTC 8325); experiment: cell-based or functional assay
[23] = molecular target: E. coli MG1655 SPase (LepB) with Gly at residue 84, in the strain (Escherichia coli K-12 MG1655) (UniProt P00803); experiment: cell-based or functional assay
[24] = molecular target: S. aureus NCTC 8325 SPase (SpsB), wild type, in the strain (Staphylococcus aureus NCTC 8325); experiment: cell-based or functional assay
[25] = molecular target: E. coli MG1655 SPase (LepB) with Ile at residue 84, in the strain (Escherichia coli K-12 MG1655) (UniProt P00803); experiment: cell-based or functional assay
[26] = molecular target: S. epidermidis RP62A signal peptidase IB (SpsIB), wild type, in the strain (Staphylococcus epidermidis RP62A); experiment: cell-based or functional assay
[27] = molecular target: E. coli MG1655 SPase (LepB) with Gln at residue 84, in the strain (Escherichia coli K-12 MG1655) (UniProt P00803); experiment: cell-based or functional assay
[28] = molecular target: E. coli MG1655 SPase (LepB) with Tyr at residue 84, in the strain (Escherichia coli K-12 MG1655) (UniProt P00803); experiment: cell-based or functional assay
[29] = molecular target: P. aeruginosa PAO1 SPase (LepB) P84L, in the strain lepB(P84L) P. aeruginosa PAO1 (Pseudomonas aeruginosa PAO1) (UniProt Q9I5G7); experiment: cell-based or functional assay
[30] = molecular target: E. coli MG1655 SPase (LepB) with Arg at residue 84, in the strain (Escherichia coli K-12 MG1655) (UniProt P00803); experiment: cell-based or functional assay
[31] = molecular target: E. coli MG1655 SPase (LepB) with His at residue 84, in the strain (Escherichia coli K-12 MG1655) (UniProt P00803); experiment: cell-based or functional assay; remark: listed apart in the source
[32] = molecular target: S. epidermidis SpsIB S31P, in strain PAS9002 (Staphylococcus epidermidis RP62A); experiment: cell-based or functional assay
[33] = molecular target: E. coli MG1655 SPase (LepB) with Asn at residue 84, in the strain (Escherichia coli K-12 MG1655) (UniProt P00803); experiment: cell-based or functional assay
[34] = molecular target: E. coli MG1655 SPase (LepB) with Phe at residue 84, in the strain (Escherichia coli K-12 MG1655) (UniProt P00803); experiment: cell-based or functional assay; remark: listed apart in the source
[35] = molecular target: E. coli MG1655 SPase (LepB) with Thr at residue 84, in the strain (Escherichia coli K-12 MG1655) (UniProt P00803); experiment: cell-based or functional assay
[36] = molecular target: E. coli MG1655 SPase (LepB) with Val at residue 84, in the strain (Escherichia coli K-12 MG1655) (UniProt P00803); experiment: cell-based or functional assay
[37] = molecular target: E. coli MG1655 SPase (LepB) with Ala at residue 84, in the strain (Escherichia coli K-12 MG1655) (UniProt P00803); experiment: cell-based or functional assay
[38] = molecular target: E. coli MG1655 SPase (LepB) with Trp at residue 84, in the strain (Escherichia coli K-12 MG1655) (UniProt P00803); experiment: cell-based or functional assay
[39] = molecular target: detergent-solubilized full-length His-tagged E. coli SPase, wild type (Escherichia coli) (UniProt P00803); experiment: equilibrium binding by the increase of arylomycin fluorescence (ex 320 nm, em 410 nm) with detergent-solubilized full-length E. coli SPase
[40] = molecular target: detergent-solubilized full-length His-tagged E. coli SPase, P84S variant (Escherichia coli) (UniProt P00803); experiment: as above
[41] = molecular target: full-length His-tagged S. aureus SPase (SpsB), P29S mutant (Staphylococcus aureus NCTC 8325); experiment: steady-state binding by increase of arylomycin fluorescence, full-length SPase, buffer with 10% glycerol
[42] = molecular target: full-length His-tagged S. aureus SPase (SpsB), wild type (Staphylococcus aureus NCTC 8325); experiment: as above

In the case of arylomycin C16 (peptide), the EC50 (read off the curve) [1] is reported as 100 nM, the EC50 (read off the curve) [2] is reported as 2000 nM and the EC50 (read off the curve) [3] is reported as 200 nM. For the same substance, the EC50 (read off the curve) [4] was 2000 nM, the Kd [5] was 60 nM and the Kd [6] was 5.7 nM. The MIC of arylomycin C16 for the E. coli strain with this residue 84 [7] was 4 µg/mL, the MIC of arylomycin C16 for the E. coli strain with this residue 84 [8] was 2 µg/mL and the Kd [9] was 39 nM. For the same substance, the Kd [10] was 979 nM, the MIC of arylomycin C16 for the E. coli strain with this residue 84 [11] was < 16 µg/mL and the MIC of arylomycin C16 for the E. coli strain with this residue 84 [12] was < 16 µg/mL. The MIC of arylomycin C16 for the E. coli strain with this residue 84 [13] was < 16 µg/mL, the MIC (µg/ml) of arylomycin C16 for the sensitive E. coli strain [14] was 0.5 µg/mL and the MIC of arylomycin C16 for the E. coli strain with this residue 84 [14] was < 16 µg/mL. For the same substance, the MIC (µg/mL) of arylomycin C16 for the strain [15] was > 128 µg/mL, the MIC (µg/ml) of arylomycin C16 for the resistant E. coli strain [15] was > 64 µg/mL and the MIC of arylomycin C16 for the E. coli strain with this residue 84 [15] was > 256 µg/mL. The MIC (µg/mL) of arylomycin C16 for the strain [16] was > 128 µg/mL, the MIC (µg/ml) of arylomycin C16 for the resistant P. aeruginosa strain [16] was > 64 µg/mL and the MIC of arylomycin C16 for the E. coli strain with this residue 84 [17] was < 16 µg/mL. The MIC of arylomycin C16 for the E. coli strain with this residue 84 [18] was < 16 µg/mL, the MIC (µg/mL) of arylomycin C16 for the strain [19] was 2 µg/mL and the MIC of arylomycin C16 for the E. coli strain with this residue 84 [19] was < 16 µg/mL. The MIC (µg/mL) of arylomycin C16 for the strain [20] was 8 µg/mL, the MIC (µg/ml) of arylomycin C16 for the resistant S. epidermidis strain [20] was 8 µg/mL and the fold elevation of the MIC over the wild type strain [20] was 32 fold. The MIC (µg/mL) of arylomycin C16 for the strain [21] was 8 µg/mL, the MIC (µg/mL) of arylomycin C16 for the strain [22] was 2 µg/mL and the MIC (µg/ml) of arylomycin C16 for the sensitive S. aureus strain [22] was 2 µg/mL. The MIC of arylomycin C16 for the E. coli strain with this residue 84 [23] was < 16 µg/mL, the MIC (µg/mL) of arylomycin C16 for the strain [24] was > 128 µg/mL and the MIC (µg/ml) of arylomycin C16 for the resistant S. aureus strain [24] was > 64 µg/mL. The MIC of arylomycin C16 for the E. coli strain with this residue 84 [25] was < 16 µg/mL, the MIC (µg/mL) of arylomycin C16 for the strain [26] was 0.25 µg/mL and the MIC (µg/ml) of arylomycin C16 for the sensitive S. epidermidis strain [26] was 0.5 µg/mL. For the same substance, the MIC of arylomycin C16 for the E. coli strain with this residue 84 [27] was < 16 µg/mL, the MIC of arylomycin C16 for the E. coli strain with this residue 84 [28] was < 16 µg/mL and the MIC (µg/ml) of arylomycin C16 for the sensitive P. aeruginosa strain [29] was 8 µg/mL. For the same substance, the MIC of arylomycin C16 for the E. coli strain with this residue 84 [30] was < 16 µg/mL, the MIC of arylomycin C16 for the E. coli strain with this residue 84 [31] was < 16 µg/mL and the MIC (µg/mL) of arylomycin C16 for the strain [32] was > 128 µg/mL. For the same substance, the fold elevation of the MIC over the wild type strain [32] was > 256 fold, the MIC of arylomycin C16 for the E. coli strain with this residue 84 [33] was < 16 µg/mL and the MIC of arylomycin C16 for the E. coli strain with this residue 84 [34] was < 16 µg/mL. The MIC of arylomycin C16 for the E. coli strain with this residue 84 [35] was < 16 µg/mL, the MIC of arylomycin C16 for the E. coli strain with this residue 84 [36] was < 16 µg/mL and the MIC of arylomycin C16 for the E. coli strain with this residue 84 [37] was < 16 µg/mL. For the same substance, the MIC of arylomycin C16 for the E. coli strain with this residue 84 [38] was < 16 µg/mL, the EC50 (read off the curve) [39] was 100 nM and the EC50 (read off the curve) [40] was 10 nM. For the same substance, the Kd [40] was 5.73 nM, the Kd [41] was 130 nM and the Kd [42] was 1280 nM.
